According to patent US20250163167A1 (SYNTHEKINE, published 2025):

Experiments:
[1] = molecular target: T1, hIL10Ra-his (Sino Biological, Catalog#10419) (human, UniProt Q13651 22-235); assay: SPR; ratio of experimental to calculated Rmax
T1 construct: Bought; also called Sino Biological cat#10419-H08H; not shown: C-terminal poly-His tag
T1 sequence: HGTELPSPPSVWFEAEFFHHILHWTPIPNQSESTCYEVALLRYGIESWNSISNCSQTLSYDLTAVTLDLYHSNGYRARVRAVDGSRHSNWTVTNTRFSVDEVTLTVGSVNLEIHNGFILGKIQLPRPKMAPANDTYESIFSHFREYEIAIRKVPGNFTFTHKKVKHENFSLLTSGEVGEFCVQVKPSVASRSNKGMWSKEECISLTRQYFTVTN
Source text: (§1) To confirm and evaluate binding affinities of the binding of the IL10Ra sdAbs, a representative example from each clonotype generated was selected for evaluation of binding via SPR. […] Buffer-subtracted sensograms were processed with Biacore T200 Evaluation Software and globally fit with a 1:1 Langmuir binding model (bulk shift set to zero) to extract kinetics and affinity constants (kₐ, kd, KD). RMAX<100 RU indicates surface density compatible with kinetics analysis. Calculated Rₘₐₓ values were generated using the equation: Rₘₐₓ=Load (RU)×valency of ligand×(Molecular weight of analyte/Molecular weight of ligand). Surface activity was defined as the ratio of experimental/calculated Rmax.
(§2) One representative example from each clonotype of IL10a generated in accordance with Examples 1-3 was selected for evaluation of binding via SPR as follows. […] All experiments were conducted in 10 mM Hepes, 150 mM NaCl, 0.05% (v/v) Polysorbate 20 (PS20) and 3 mM EDTA (HBS-EP+ buffer) on a Biacore T200 instrument equipped with a Protein A derivatized sensor chip (Cytiva). Mono-Fc VHH ligands were flowed at 5 μl/min for variable time ranging from 18 to 300 seconds, reaching the capture loads listed in the tables below. Following ligand capture, injections of a 2-fold dilution series of the extracellular domain of the IL2Rb-receptor modified to incorporate a C-terminal poly-His sequence, typically comprising at least five concentrations between 1 μM and 1 nM, were performed in either high performance or single cycle kinetics mode. Surface regeneration was achieved by flowing 10 mM glycine-HCl, pH 1.5 (60 seconds, 50 μL/min).

[2] = molecular target: T1, hIL10Ra-his (Sino Biological, …); assay: SPR Biacore T200; mono-Fc VHH captured on Protein A chip, hIL10Ra-his analyte; 1:1 Langmuir fit
Source text: as §1
as §2, with “[…],” for “injections of a 2-fold dilution series of the extracellular domain of the IL2Rb-receptor modified to incorporate a C-terminal poly-His sequence,”

mIL10Rb ECD antigen = molecular target: T2, mIL10Rb ECD antigen (mouse, UniProt Q61190 20-220); assay: periplasmic extract ELISA (PE-ELISA) of phage clones
T2 construct: Antigen of biopanning and PE-ELISA; also called extracellular domain of mIL10Rb
T2 sequence: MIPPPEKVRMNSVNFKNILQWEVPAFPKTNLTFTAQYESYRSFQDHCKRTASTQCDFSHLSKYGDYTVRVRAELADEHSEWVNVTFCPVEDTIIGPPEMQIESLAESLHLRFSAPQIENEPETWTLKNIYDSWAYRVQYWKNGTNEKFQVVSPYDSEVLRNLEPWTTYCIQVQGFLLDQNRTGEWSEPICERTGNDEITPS

B1: hIL-10Ra_VHH6 Mono-Fc (Fc fusion)
chain: QVQLQESGGGSVQAGGSLRLSCAASRFTYSSYCMGWFRQAPGKEREGVASIDSDGSTSYTDSVKGRFTISKDNAKNTLYLQMNSLKPEDTAMYYCALDLMSTVVPGFCGFLLSAGMDYWGKGTQVTVSS
notes: Mono-Fc VHH captured on Protein A; not shown: mono-Fc part
Q: B1 was tested. Which “Surface Activity” value [1] did it give?
A: 83%

Q: And the Kd [2]?
A: 1.8 nM

Q: What about the koff [2] of the same binder?
A: 0.00019 s⁻¹

Q: And the kon [2]?
A: 106000 M⁻¹ s⁻¹

B2: hIL-10Ra_VHH8 Mono-Fc (Fc fusion)
chain: QVQLQESGGGSVQAGGSLRLSCAASGYTYSMYCMGWFRQAPGKEREGVAQINSDGSTSYADSVKGRFTISKDNAKNTLYLQMNSLKPEDTAMYYCAADSRVYGGSWYERLCGPYTYEYNYWGQGTQVTVSS
notes: as for B1
Q: Which “Surface Activity” value [1] does the source give for B2 here?
A: 57%

Q: What about the Kd [2] of the same binder?
A: 6.4 nM

Q: What about the koff [2] of the same binder?
A: 0.00107 s⁻¹

Q: And the kon [2]?
A: 168000 M⁻¹ s⁻¹

B3: hIL-10Ra_VHH12 Mono-Fc (Fc fusion)
chain: QVQLQESGGGSVQAGGSLRLSCTVSGYTYSSNCMGWFRQAPGKEREGVATIYTGGGNTYYADSVKGRFTISQDNAKNTVYLQMNNLKPEDTAMYYCAAEPLSRVYGGSCPTPTFDYWGQGTQVTVSS
notes: as for B1
Q: Which “Surface Activity” value [1] does the source give for B3 here?
A: 73%

Q: And the Kd [2]?
A: 7.7 nM

Q: What about the koff [2] of the same binder?
A: 0.00119 s⁻¹

Q: What about the kon [2] of the same binder?
A: 154000 M⁻¹ s⁻¹

B4: hIL-10Ra_VHH9 Mono-Fc (Fc fusion)
chain: QVQLQESGGGSVQAGGSLRLSCAVSGYAYSTYCMGWFRQAPGKEREGVAAIDSGGSTSYADSVKGRFTISKDNAKNTLYLRMNSLKPEDTAMYYCAAVPPPPDGGSCLFLGPEIKVSKADFRYWGQGTQVTVSS
notes: as for B1
Q: How did the “Surface Activity” value [1] turn out when B4 was run?
A: 66%

Q: And the Kd [2]?
A: 11.6 nM

Q: And the koff [2]?
A: 0.00115 s⁻¹

Q: And the kon [2]?
A: 99700 M⁻¹ s⁻¹

B5: hIL-10Ra_VHH10 Mono-Fc (Fc fusion)
chain: QVQLQESGGGSVQAGGSLRLSCAASRYLYSIDYMAWFRQSPGKEREPVAVIYTASGATFYPDSVKGRFTISQDNAKMTVYLQMNSLKSEDTAMYYCAAVRKTDSYLFDAQSFTYWGQGTQVTVSS
notes: as for B1
Q: For B5, which “Surface Activity” value [1] is on record?
A: 57%

Q: And the Kd [2]?
A: 13.4 nM

Q: And the koff [2]?
A: 0.00139 s⁻¹

Q: And the kon [2]?
A: 104000 M⁻¹ s⁻¹

B6: DR1324 (anti mouse mIL10Rb VHH) (VHH)
VHH: QVQLQESGGGSVQAGGSLRLSCATSGYASCSRAMRWYRQAPGKEREFVAYIDGVGSTGYADSVKGRFTISQDNAKYTAYLQMNSLKPEDTAMYYCNRGCRADGSNSLDNYWGQGTQVTVSS
notes: Phage clone, periplasmic extract
Q: Does B6 bind (mIL10Rb ECD antigen)?
A: binds

B7: hIL-10Ra_VHH17 Mono-Fc (Fc fusion)
chain: QVQLQESGGGSVQAGGSLRLSCAASGYSNCSYDMTWYRQAPGKEREFVSAIHSDGSTRYADSVKGRFFISQDNAKNTVYLQMNSLKPEDTAMYYCKTDPLHCRAHGGSWYSVRANYWGQGTQVTVSS
notes: as for B1
Q: What does the source list for B7?
A: Surface Activity [1]: 35%; Kd [2]: 6 nM; koff [2]: 0.00197 s⁻¹; kon [2]: 327000 M⁻¹ s⁻¹

B8: DR1325 (anti mouse mIL10Rb VHH) (VHH)
VHH: QVQLQESGGGSVQAGGSLRLSCAASGYTYNRRFMGWFRQAPGKEREGLAIIYTPNSSTFYADSVTGRFTISQDSARNTVYLQMNSLKPEDTAMYYCAAARIASMTELSVRDMDYWGKGTQVTVSS
notes: as for B6
Q: Does B8 bind (mIL10Rb ECD antigen)?
A: binds

B9: DR1322 (anti mouse mIL10Rb VHH) (VHH)
VHH: QVQLQESGGGSVQAGGALRLSCTASGYTASSICMGWFRQAPGKERERVAVITTAASGTYYADSVNGRFSISQNNAKNTVYLQMNSLKPDDTAMYYCAATRRGGDCLDPLQTPAYNTWGQGTQVTVSS
notes: as for B6
Q: Does B9 bind (mIL10Rb ECD antigen)?
A: binds

B10: DR1323 (anti mouse mIL10Rb VHH) (VHH)
VHH: QVQLQESGGGSVQAGGSLRLSCVASGDTYSRKYIAWVRQVPGKEREGVAVMYTPGSATYYTDTVMGRFTISQDNAKNTVYLQMNSLKPEDTAMYFCAAKASGSMFNFRDYTYWGQGTQVTVSS
notes: as for B6
Q: Does B10 bind (mIL10Rb ECD antigen)?
A: binds

B11: hIL-10Ra_VHH14 Mono-Fc (Fc fusion)
chain: QVQLQESGGGSVQAGGSLRLSCGASGYTYSSYCMGWFRQVPGKEREGVAVIDSDGSTSYADSVKGRFTISKDNGKNTLYLQMNSLKPEDTAMYYCAADLGHYRPPCGVLYLGMDYWGKGTQVTVSS
notes: as for B1
Q: What does the source list for B11?
A: Surface Activity [1]: 51%; Kd [2]: 1.4 nM; koff [2]: 0.000136 s⁻¹; kon [2]: 98400 M⁻¹ s⁻¹
